{"source": "the DeepSol protein solubility set"}
{"experiment": "soluble on expression in E. coli; label from the status in PepcDB or PDB records"}
{"sequence": "MGHHHHHHSHMLLAASKVLDRLKPVIGVNTDPERSEGHLCLPVRYTHSFPEALQKFYRGEFRWLWRQRIRLYLEGTGINPVPVDLHEQQLSLNQHNRALNIERAHDERSEASGPQLLPVRALNEVFIGESLSSRASYYEISVDDGPWEKQKSSGLNLCTGTGSKAWSFNINRVATQAVEDVLNIAKRQGNLSLPLNRELVEKVTNEYNESLLYSPEEPKILFSIREPIANRVFSSSRQRCFSSKVCVRSRCWDACMVVDGGTSFEFNDGAIASMMINKEDELRTVLLEQ", "soluble on expression in E. coli": "not soluble"}
{"sequence": "GGQIVHTETTEVVLCGDPLSGFGLQLQGGIFATETLSSPPLVCFIEPDSPAERCGLLQVGDRVLSINGIATEDGTMEEANQLLRDAALAHKVVLEVEFD", "soluble on expression in E. coli": "soluble"}
{"sequence": "SLVYDGNNKLIADLGSEKRESVSADSIPLNLVNAITSIEDKRFFKHRGVDIYRILGAAWHNLVSSNTQGGSTLDQQLIKLAYFSTNKSDQTLKRKSQEVWLALQMERKYTKEEILTFYINKVYMGNGNYGMRTTAKSYFGKDLKELSIAQLALLAGIPQAPTQYDPYKNP", "soluble on expression in E. coli": "not soluble"}
{"sequence": "MGSDKIHHHHHHMKETSWDDYKIAYQVALDGSLSRAGVSLRINHATVLRRINQLEQALEVKLFIRHQRGYKLTDAGCVLMDEMPEMLAKFSSLENKLQNVEGDISGELRITTVSSFSPVITPALKAFRAKYPKIRLKLISTDDIVPLDSGAAHVSLRAGPSPVGVDLVVKNLIKLETAYHATQDYIDEFGQPKTINEFNDHQWVLPTPEKYRIPFVNYIVDKIDKNRIVFQSNNFSDIHDAVIAGMGIGPLSDHQASLNPSMVKIDLDIPKNGESIWFVYHKDLKHSARIQSFYHFLKAALSDIEQEHLRISDSKTNKD", "soluble on expression in E. coli": "not soluble"}
{"sequence": "MGSDKIHHHHHHMDPVLELEAVSKCFQRYRHPRDRLWELLFPRTSRVQTFQALENISLQVEPGRTIGIVGRNGAGKSTLLQIVAGTLTPSSGRVKVRGRVAALLELGSGFNPEFTGRQNVFFNGQLLGLTPQEIRDRFAEIVAFAEIGDFLDQPVKTYSSGMMVRLAFSVVAHLDPELLIVDEALAVGDARFQARCMKRIRELKEKGTTILFVSHDANAVRMLCDEAVLLEGGRILERGNPNWVLNHYNQLLGLEDRDNYRPLAQETQQAGLCYVEQAAHPNRHGNGRATISKAWLSGSGLQADKVLQGGDLTLTFQLQIHQDLPDALIGLSIRNLYGVVIYGTNNLQLEKRPKALAAGSSPELSFRWRNQLNAGVYTISIAITSEDCEVYDWIDEALVFEVVNDRFCEGVIDLGADLHWISEFSSPAAIATSRDSLGSTSPSS", "soluble on expression in E. coli": "not soluble"}
{"sequence": "MGSDKIHHHHHHMKILYIITGLPTGGAEMMLYKLLSQINQERFEPIVVSLMDRGTLGDRIEALGIPVHTIGMNRGGIPMPVDVWRLVHLVDRLQPDIIQGWMYHGNLAAQFASFLNGNKIPIVWSIHYSIDSLESDKKMTVAIIKFSAYISRLPKQVLFVSQNSKLQHEALGYSSKNSCIIPNGFDTISFSPSLTERVDVRSELSLPHESLLIGLICRYHPMKDHANFIQAAALFLKEHPNINFLMIGQGVDRDNPTLNKLIKELGIGDRISLLGERKDIPRLITSLDIFTSASAYGEAFPLVIGEAMSCGIPCVVTDVGDSGWIVGNTGKVIPPRNPQMLADAWKELIALGEEGRNILGKAARARITEDFALNSVVAKYELVYEKILSNMST", "soluble on expression in E. coli": "not soluble"}
{"sequence": "GSHADLLRKNAEVTKQVSMARQAQVDLEREKKELEDSLERISDQGQRKTQEQLEVLESLKQELATSQRELQVLQGSLETSAQSEANWAAEFAELEKERDSLVSGAAH", "soluble on expression in E. coli": "soluble"}
{"sequence": "MDTKVVPKISEKICEKFANIINKKPQKKGKEYKIGVDLGTANVVVAVLNENNEPVAGAMKSAQVVKDGVVVDFVGAKEIVKRMVDFLNEELEGKLRVAACAIPPGTGEGVSKATKYVVEEAGLEVIKVVDEPTAAAKLLEIMDGIVVDIGGGTTGISVLKDGKVVYVADEPTGGTHFTLVLAGHFNISFEEAEKIKLDVQRQKLLTPILKPCMEKVAEIIKRHTFSFDNIDTIYLVGGASALHGLKEVVENTTRKKVIVPQYPIFITPLGIALSCEKG", "soluble on expression in E. coli": "not soluble"}
{"sequence": "MGSDKIHHHHHHLAKIKTKFVCQSCGTESPKWMGRCSGCGEWNTMVEEVVEEKKARRGSAFVHTTTKQLKPERLSNILSQEESRVFTGSGEFDRVLGGGIVPGSMVLVGGDPGIGKSTILLQTSARLAARGEKVLYISGEESLKQTKLRAERLGLPTQDLFVLSETDMNMIERVVDEENPAFLIIDSIQTVYIDEIQSAPGSVTQVRECTAMLMKIAKSRGIAIFIVGHVTKQGSIAGPRLLEHMVDAVLYFEGERHHTFRILRAVKNRFGSTNEIGIFEMRESGLEEVLNPSEIFLEERTSGVSGSTIVASMEGTRTVLVELQALISPTSFGNPRRMATGIDQNKVALLMAVLEKRSGLLLQTQDAYLKAAGGVKLDEPAIDLAICVAVASSFRDKPTRPTDVVIGEVGLTGEVRRVSRIEQRVAEAAKLGFTRAIIPKNNLGGWTYPPGITVIGVESVDEALRETIPF", "soluble on expression in E. coli": "not soluble"}
{"sequence": "MIARPTPALGPTPIPRGGGILPRMDRIVIRGAREHNLKNISLELPRGKFIVITGVSGSGKSTLAFDTIYAEGQRRYVESLSSYARQFLGVMDKPEVESIEGLSPAISIDQKTTSHNPRSTVGTVTEIHDYLRLLFARVGQAFCPECGRPIEKQSASEITDRLLKRPPGTRAILMAPLVRGRKGEYRKLFQQLLKEGYARVRVDGVIYLLEEAQGLSLEKYEKHDIDLVIDRVVLKEEERPRIAEAVELALLRGEGLLRVLYPDTGEEELFSEKFACPEHGSVLEELEPRIFSFNSPYGACPACSGLGYRQEFDPELVVNPELSLAEGAILPWSRGRDTGRSYLWDRLRALAEHLGFDLKTPFKDLPEEAKRAVLYGLPEPFEVVFRRGGKETFRVEVRYEGVIPWLEKRYQESDSEGVREALEGFMSLRPCPACGGTRYKREVLSVKVAGRNIAEVSALPVREALAFFQGLEKTLPPFQAQIARPILREIVERLGFLVDVGLDYLTLDRAANTLSGGEAQRIRLATQVGSGLTGVLYVLDEPSIGLHPRDNQRLIRTLKRLRDLGNTLIVVEHDEETMRAADWIVDMGPGAGIHGGEVVAQGTLEDILKSPQSLTGAYLRGEKRIPVPKERRKGNGKWLVLKGARAHNLKNVTLRIPLGRFVAITGPSGSGKSTLVHDVLYAALAQRLMRAKTTPGPYEALEGVEHLDKVIEIDQSPIGRTPRSNPATYTGVFDEIRDLFAKTPEARKRGYGPGRFSFNVKGGRCEACGGDGTVKIEMLFLPDLYVPCEVCKGKRYNKETLEVKLRGKSIADVLDMTVEEALDFFQNVPSIARKLQLMVDVGLGYMKLGQPSPTLSGGEAQRIKLATELGRKATGRTLYILDEPTTGLHFDDVAKLLSVLHRLVDAGNTVVVIEHNLDVVKTADWVIDLGPEGGDRGGEIVAEGTPEEVALTGSPTGAFLARIPEIAARIGVAAD", "soluble on expression in E. coli": "soluble"}
{"sequence": "GPGSMEGPFLSRSIQYVERWLAEIVATKGTRAAATGSSEKAVAQKRGKATATAAAETGATSMSKCRFVVGRVNSVRPHPESQKLYIEEIDLGEEGGKCRTILSGLQEYVKQEDFLNRLVLVIANLEPRKIGGIPSEGMVLCASCNDEGSRSVVLLDVPEGTPVGERILFEGHEGPYEPVLKKKLAKHFEEVAAELRTNDKGEVVWRDMPFRTSCGIITASIPNGSVS", "soluble on expression in E. coli": "not soluble"}
{"sequence": "MISLPIDAVVPALRQALGAQHQAVLEAPPGAGKTTRVPLALLDEPWLAGQRILMLEPRRLAARAAAERLAAELGEKVGETVGYRIRLESRVGPKTRIEVVTEGILARRLQDDPALDGVGLVIFDEFHERSLDADLALALTLNGRELLRDEPPLKVLVMSATLEGERLAALLGEAPVVRSEGRMFPVDIRWGRPAQPGEFIEPRVQQAVLQALAEESGSVLVFLPGQAEIRRVHEGLREALGGRPEVLLCPLHGELDLAAQRAAIEPASRGTRKVVLATNIAETSLTIDGVRVVIDAGLARVPRFDPGSGMTRLETQRISRASATQRAGRAGRLEPGVCYRLWSESQHEQLPAYGTAEILQADLAGLALQLARWGVAPEELAWLDAPPAAAYAQARELLGRLGALNASGALSAHGQAMAELPTHPRIAHLLLRGQALGLGELACDVAALLGERDIQRGGGADLHSRLALLAGEARTGASRGAVQRARQLARQFRGYLRGAASEAVVDPGHPRWLGCLLAFAYPDRIARQRRAGGGDYRLANGRAAQFGEPDSLMKQPWLVIADLGSRQGQREERIYLAAELDPRLFDTVLAEQVSQRDELQWDEREGVLRAERQRRVGELVLSSEALPGLDEAARSQALLGLVRRKGLELLPWTPELRQWQARIGLLRRLDLEDKGESEWPDVSDAALLERLEEWLPAYLGKVTRLAHFANLDLASILAGLLPWPLPQRLDEWAPKTLEVPSGSRIRLDYSETPPILAVRLQELFGLGDTPRIAQGRLAVKLHLLSPAHRPVQVTQDLANFWRSTYAEVRKDLKGRYPKHYWPDDPLVAEATARAKPR", "soluble on expression in E. coli": "not soluble"}
{"sequence": "MLEKIYSVLGTGSCLVKDGEIIESYLLSDEEVKLIEKIAKVIPFLPEKFKVGFFEHEGGRIIAIKHGEVFICFPARSDNVMSELRKVEVEVYDKILSP", "soluble on expression in E. coli": "not soluble"}
{"sequence": "MNRISFNSFSNMHSLLSSKFQEHYNDIYDWNGNIENIYKANTFISIGYKLLYPLGVLEANFDKEKLKKFLFRICSYYNDIPYHTSLHAAQVAHFSKSMLFMLDMNHKISAIDEFCLHISSLCHDTGHPGLNNYFLINSENNLALTYNDNSVLENYHCSLLFKTLKNPNYNIFEHYPYHIFISCKKNIIKAILSTDMKNHFEYISDFRTSKEFIDYDNLSNDQIWQIFCLILKASDIGHSTLEWNKHLEWTLKINEEFYLQGLLEKSLNIQNSFLCDINTMNKLALSQIDFLKHLCIPLFNELNYICKNNDVYTHCIQPIENNIERWESHKND", "soluble on expression in E. coli": "soluble"}
{"sequence": "MLTIPEKENRGSKEQEVAIMIDALADKGKKALEALSKKSQEEIDHIVHQMSLAAVDQHMVLAKLAHEETGRGIYEDKAIKNLYASEYIWNSIKDNKTVGIIGEDKEKGLTYVAEPIGVICGVTPTTNPTSTTIFKAMIAIKTGNPIIFAFHPSAQESSKRAAEVVLEAAMKAGAPKDIIQWIEVPSIEATKQLMNHKGIALVLATGGSGMVKSAYSTGKPALGVGPGNVPSYIEKTAHIKRAVNDIIGSKTFDNGMICASEQVVVIDKEIYKDVTNEFKAHQAYFVKKDELQRLENAIMNEQKTGIKPDIVGKSAVEIAELAGIPVPENTKLIIAEISGVGSDYPLSREKLSPVLALVKAQSTKQAFQICEDTLHFGGLGHTAVIHTEDETLQKDFGLRMKACRVLVNTPSAVGGIGDMYNELIPSLTLGCGSYGRNSISHNVSATDLLNIKTIAKRRNNTQIFKVPAQIYFEENAIMSLTTMDKIEKVMIVCDPGMVEFGYTKTVENVLRQKTEQPQIKIFSEVEPNPSTNTVYKGLEMMVDFQPDTIIALGGGSAMDAAKAMWMFFEHPETSFFGAKQKFLDIGKRTYKIGMPENATFICIPTTSGTGSEVTPFAVITDSETNVKYPLADFALTPDVAIIDPQFVMSVPKSVTADTGMDVLTHAMESYVSVMASDYTRGLSLQAIKLTFEYLKSSVEKGDKVSREKMHNASTLAGMAFANAFLGIAHSIAHKIGGEYGIPHGRANAILLPHIIRYNAKDPQKHALFPKYEFFRADTDYADIAKFLGLKGNTTEALVESLAKAVYELGQSVGIEMNLKSQGVSEEELNESIDRMAELAFEDQCTTANPKEALISEIKDIIQTSYDYKQ", "soluble on expression in E. coli": "not soluble"}
{"sequence": "MSMKGKETMSKQNEKLVVGKLGSSYGIRGWLKVFSYTDNPESIFDYSPWYIDQKGEWVEYKVEGWKRHNKGWVVKLQGLDVREDAHLLTNFEIAIDPASLPELSEDEFYWRELFGMQVVTTNGYDLGVVTDMMETGSNDVLVVKANLKDAFGQKERLIPFLEEQVIKVVDRQAQRIEVDWDPAF", "soluble on expression in E. coli": "soluble"}
